Assay results as given in the supplement of paper PMC10567573.

B1: PKD2L1 (parent)
chain: TLARCAKDILGFAVMFFIVFFAYA
B2: TRIM43 (parent)
chain: NNSWIRKNSTMVNSEDIFLLLCLK

Variants of: B1
Assay: protein stability index of a GFP-peptide fusion (GPS, HEK-293T) (PSI 1-6); higher = more stable
Conditions: c terminus: a fixed tail appended
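Further: lentivirally expressed fusions sorted by FACS into six bins by GFP to DsRed ratio, PSI derived from sequencing read proportions per bin multiplied by bin number.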

| Variant | protein stability index |
| --- | --- |
| D8F | 2.33 |
| D8H | 2.66 |
| D8W | 2.88 |
| D8C | 2.56 |
| D8I | 2.56 |
| D8T | 3.06 |
| D8Y | 2.7 |
| D8A | 2.77 |
| D8E | 2.21 |
| D8R | 2.06 |
| D8S | 1.98 |
| D8P | 2.25 |
| D8Q | 1.51 |
| D8L | 2.47 |
| D8V | 2.33 |
| D8M | 2.76 |
| D8K | 2.07 |
| D8G | 2.75 |
| D8N | 1.91 |
| Y23L | 2.34 |
| Y23F | 1.57 |
| Y23E | 2.56 |
| Y23W | 2.72 |
| Y23K | 2.31 |
| Y23I | 1.51 |

| Variant | protein stability index |
| --- | --- |
| Y23P | 2.51 |
| Y23N | 2.61 |
| Y23A | 1.7 |
| Y23C | 3.45 |
| Y23S | 2.47 |
| Y23R | 1.42 |
| Y23V | 2.37 |
| Y23G | 2.6 |
| Y23T | 2.98 |
| Y23H | 2.27 |
| A13D | 1.84 |
| A13P | 1.65 |
| A13H | 2.15 |
| A13I | 1.52 |
| A13R | 3.17 |
| A13F | 2.92 |
| A13N | 2.11 |
| A13E | 2.82 |
| A13Y | 2.65 |
| A13S | 1.75 |
| A13Q | 2.25 |
| A13K | 3.14 |
| A13C | 2.25 |
| A13G | 2.06 |
| A13L | 2.63 |

| Variant | protein stability index |
| --- | --- |
| A22Y | 2.58 |
| A22Q | 2.21 |
| A22L | 2.14 |
| A22F | 1.98 |
| A22R | 1.95 |
| A22K | 1.67 |
| A22T | 1.83 |
| A22G | 4.34 |
| A22V | 1.42 |
| A22M | 1.48 |
| A22S | 3.22 |
| A22P | 4.08 |
| A22E | 2.82 |
| A22I | 1.91 |
| A22N | 2.92 |
| A22W | 2.69 |
| A22C | 4.15 |
| A22H | 2.35 |
| V19K | 2.34 |
| V19A | 2.61 |
| V19M | 2.58 |
| V19W | 3 |
| V19C | 2.32 |
| V19I | 2.9 |
| V19H | 3.19 |

| Variant | protein stability index |
| --- | --- |
| V19R | 2.36 |
| V19Q | 3.48 |
| V19D | 3.22 |
| V19F | 2.13 |
| V19Y | 2.5 |
| V19T | 2.69 |
| V19E | 2.11 |
| V19L | 3.88 |
| V19S | 2.36 |
| V19G | 2.34 |
| V19N | 2.39 |
| V19P | 2.99 |
| I18M | 1.49 |
| I18H | 1.92 |
| I18D | 3.03 |
| I18R | 2.18 |
| I18E | 2 |
| I18C | 2.29 |
| I18T | 1.74 |
| I18Q | 1.54 |
| I18P | 2.18 |
| I18S | 1.72 |
| I18Y | 3.2 |
| I18N | 1.6 |
| I18F | 3.16 |

| Variant | protein stability index |
| --- | --- |
| I18W | 3.5 |
| I18K | 1.71 |
| I18A | 2.54 |
| I18G | 2.09 |
| K7Y | 3.79 |
| K7T | 2.83 |
| K7G | 2.45 |
| K7R | 2.29 |
| K7E | 2.36 |
| K7P | 2.84 |
| K7I | 2.36 |
| K7A | 2.16 |
| K7V | 4.08 |
| K7W | 2.57 |
| K7H | 3.13 |
| K7F | 2.78 |
| K7D | 3.17 |
| K7Q | 3.71 |
| K7M | 2.47 |
| F17M | 1.84 |
| F17T | 2.4 |
| F17Y | 2.37 |
| F17W | 1.91 |
| F17I | 2.44 |
| F17C | 2.07 |

| Variant | protein stability index |
| --- | --- |
| F17A | 1.79 |
| F17H | 3.23 |
| F17S | 2.03 |
| F17K | 2.06 |
| F17E | 2.32 |
| F17Q | 1.98 |
| F17R | 2.98 |
| F17V | 2.44 |
| F17N | 1.56 |
| F17G | 2.44 |
| F17D | 3.23 |
| F20S | 2.46 |
| F20A | 1.99 |
| F20C | 2.57 |
| F20G | 2.03 |
| F20E | 2.77 |
| F20W | 1.56 |
| F20I | 2.7 |
| F20Q | 3.46 |
| F20Y | 2.46 |
| F20D | 1.83 |
| F20H | 2.07 |
| F20T | 1.92 |
| F20P | 3.48 |
| F20K | 2.48 |

| Variant | protein stability index |
| --- | --- |
| F20V | 3.23 |
| F20R | 2.42 |
| I9W | 2.43 |
| I9D | 1.64 |
| I9S | 2.6 |
| I9H | 2.46 |
| I9C | 3.32 |
| I9K | 1.22 |
| I9F | 3.86 |
| I9P | 1.93 |
| I9T | 1.58 |
| I9R | 1.74 |
| I9A | 2.44 |
| I9L | 1.58 |
| I9V | 2.24 |
| I9Q | 1.84 |
| I9G | 2.66 |
| I9M | 3.48 |
| I9E | 1.46 |
| I9Y | 1.94 |
| I9N | 1.69 |
| M15D | 2.89 |
| M15I | 3.37 |
| M15W | 2.5 |
| M15C | 2.86 |

| Variant | protein stability index |
| --- | --- |
| M15Q | 3.41 |
| M15S | 1.33 |
| M15P | 2.62 |
| M15G | 2.48 |
| M15Y | 1.72 |
| M15A | 2.27 |
| M15H | 2.17 |
| M15N | 1.32 |
| M15F | 2.54 |
| M15K | 2.58 |
| M15E | 2.61 |
| M15V | 1.88 |
| M15L | 1.25 |
| M15R | 3.16 |
| F12D | 2.24 |
| F12S | 1.89 |
| F12T | 1.89 |
| F12V | 2.42 |
| F12N | 2.55 |
| F12H | 1.93 |
| F12G | 2.56 |
| F12I | 1.49 |
| F12Q | 2.1 |
| F12C | 1.87 |
| F12L | 3.16 |

| Variant | protein stability index |
| --- | --- |
| F12Y | 1.89 |
| F12R | 2.02 |
| F12A | 1.42 |
| F12K | 2.33 |
| F12E | 1.44 |
| F12P | 2.87 |
| F12W | 3.56 |
| V14Q | 2.46 |
| V14S | 2.61 |
| V14T | 2.07 |
| V14A | 2.06 |
| V14I | 1.86 |
| V14K | 3.08 |
| V14L | 3.47 |
| V14M | 1.61 |
| V14C | 2.86 |
| V14P | 1.82 |
| V14F | 2.3 |
| V14H | 2.85 |
| V14R | 2.82 |
| V14D | 2.59 |
| V14N | 3.15 |
| V14G | 1.9 |
| V14E | 2.48 |
| V14Y | 3.2 |

| Variant | protein stability index |
| --- | --- |
| L10R | 2.54 |
| L10H | 1.83 |
| L10N | 1.82 |
| L10G | 2.03 |
| L10C | 2.79 |
| L10M | 2.61 |
| L10I | 2.42 |
| L10A | 2.38 |
| L10T | 3.28 |
| L10F | 1.91 |
| L10Q | 3.08 |
| L10V | 2.92 |
| L10Y | 2.38 |
| L10W | 2.49 |
| L10P | 3.1 |
| L10S | 1.84 |
| F21K | 2.1 |
| F21Y | 3.96 |
| F21R | 2.16 |
| F21A | 2.11 |
| F21H | 2.98 |
| F21N | 2.78 |
| F21D | 3.21 |
| F21L | 1.94 |
| F21W | 2.46 |

| Variant | protein stability index |
| --- | --- |
| F21Q | 1.38 |
| F21I | 3.32 |
| F21M | 2.54 |
| F21T | 2.88 |
| F21S | 2.01 |
| F21G | 2.08 |
| F21C | 3.17 |
| A6T | 3 |
| A6N | 3.44 |
| A6I | 2.69 |
| A6L | 4.57 |
| A6W | 2.75 |
| A6P | 3.24 |
| A6V | 2.95 |
| A6Y | 3.06 |
| A6K | 3.02 |
| A6M | 2.09 |
| F16L | 3.69 |
| F16P | 1.96 |
| F16N | 2.6 |
| F16I | 1.57 |
| F16W | 3.32 |
| F16Y | 1.88 |
| F16V | 2.07 |
| F16H | 2.28 |

| Variant | protein stability index |
| --- | --- |
| F16M | 2.98 |
| F16S | 1.82 |
| F16R | 3.37 |
| F16T | 2.41 |
| F16A | 2.21 |
| F16Q | 4.27 |
| F16E | 3.1 |
| F16G | 2.71 |
| F16C | 1.79 |
| F16K | 4.35 |
| A24W | 3.47 |
| A24R | 1.45 |
| A24Y | 3.62 |
| A24D | 2.9 |
| A24V | 1.63 |
| A24M | 1.92 |
| A24F | 2.65 |
| A24I | 1.68 |
| A24C | 1.23 |
| A24K | 2.06 |
| A24N | 2.33 |
| A24P | 3.52 |
| A24Q | 2.42 |
| A24L | 3.01 |
| G11A | 1.41 |

| Variant | protein stability index |
| --- | --- |
| G11N | 2.4 |
| G11H | 3.32 |
| G11P | 1.81 |
| G11R | 2.72 |
| G11K | 3.33 |
| G11E | 3.51 |
| G11F | 1.22 |
| G11L | 1.73 |
| G11Y | 2.38 |
| G11S | 3.06 |
| G11C | 2.06 |
| G11W | 1.06 |
| G11M | 1.48 |
| G11Q | 2.35 |
| G11D | 2.28 |
| G11T | 3.47 |
| G11V | 1.74 |
| G11I | 2.79 |

Variants of: B2
Assay: as above
Conditions: c terminus: a fixed tail appended

| Variant | protein stability index |
| --- | --- |
| N1W | 2.36 |
| N1D | 2.27 |
| N1G | 2.73 |
| N1Q | 2.11 |
| N1F | 3.27 |
| N1S | 2.39 |
| N1T | 2.58 |
| N1I | 2.27 |
| N1R | 2.71 |
| N1L | 2.47 |
| N1M | 2.72 |
| N1A | 2.72 |
| N1K | 3.25 |
| N1V | 3.04 |
| N1E | 4.19 |
| N1H | 3.28 |
